Assay results taken from US20080045454A1 (TRUSTEES OF COLUMBIA UNIVERSITY IN THE CITY OF NEW YORK, published 2008).

B1: TRIMStop expressed in fusion with the B42 activation domain (other, not shown: large carriers)
chain: MASRILVNIKEEVTCPICLELLTEPLSLDCGHSFCQACITANHKKSMPHQGERSCPLCRISYSSENLRPNRHLVNIVERLREVMLSPEEGQKVDHCAHHGEKLVLFCQQDGNVICWLCERSQEHRGHQTFLVEEVAQKYREKLQVALEMMRQKQKDAEKLEADVREEQASWKIQIQNDKTNIMAEFKKRRDILDCEESKELQNLEKEEKNILKRLVQSENDMVLQTQSVRVLISDLEHRLQGSVMELLQGVDGVIKRIEKVTLQNPKTFLNEKRRIFQTPDLKGTLQVFKEPTEVQRYWDAAAWDLVASA
notes: also called B42-TRIMStop
B2: 3× FLAG N-terminal-tagged TRIMStop (other)
chain: B1 chain
notes: also called FLAG-TRIMStop; not shown: 3x FLAG tag of p3xFLAG.CMV (SIGMA)

Columns and labels:
TRIMCyp fused to lexA = biological target: T1, TRIMCyp fused to lexA (owl monkey (Aotus trivirgatus)); experiment: yeast two-hybrid, β-galactosidase reporter
T1 construct: Yeast two-hybrid bait; also called LexA-TRIMCyp; not shown: LexA, fusion partner of the yeast two-hybrid system

TRIMStop fused to lexA = biological target: T2, TRIMStop fused to lexA (owl monkey (Aotus trivirgatus)); experiment: yeast two-hybrid, β-galactosidase reporter
T2 construct: Yeast two-hybrid bait; also called LexA-TRIMStop; not shown: LexA, fusion partner of the yeast two-hybrid system
T2 chain: B1 chain

[1] = biological target: T3, GST-TRIM5αhu (glutathione S-transferase fusion with full-length human TRIM5α) (human, UniProt Q9C035 2-493); experiment: immunofluorescence colocalization in cotransfected TE671 cells
T3 construct: mature; Produced in 293T cells; also called GST-T5α; not shown: glutathione S-transferase (GST)
T3 sequence (Q9C035 2-493): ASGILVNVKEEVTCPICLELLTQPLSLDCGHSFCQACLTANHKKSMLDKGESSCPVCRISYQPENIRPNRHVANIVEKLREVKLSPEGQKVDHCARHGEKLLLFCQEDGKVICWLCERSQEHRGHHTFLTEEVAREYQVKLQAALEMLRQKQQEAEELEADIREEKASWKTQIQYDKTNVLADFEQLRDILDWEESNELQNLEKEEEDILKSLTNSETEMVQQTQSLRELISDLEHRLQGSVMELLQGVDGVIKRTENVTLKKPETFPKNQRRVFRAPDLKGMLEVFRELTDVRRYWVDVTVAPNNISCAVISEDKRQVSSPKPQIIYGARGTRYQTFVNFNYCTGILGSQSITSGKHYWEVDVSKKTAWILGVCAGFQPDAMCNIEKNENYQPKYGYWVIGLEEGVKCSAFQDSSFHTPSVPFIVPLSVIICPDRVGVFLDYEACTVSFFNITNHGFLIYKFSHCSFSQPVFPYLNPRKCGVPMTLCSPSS

Binder | binding result (TRIMCyp fused to lexA) | binding result (TRIMStop fused to lexA) | binding result [1]
B1 | binds | binds | –
B2 | – | – | binds
